Measurements reported in the supplement of paper PMC10126150.
± gives the standard deviation of the averaged measurements.

Test system: ATP
Assay: switch fluorescence ratio, 500 uM ATP over buffer (Cy3 cluster intensity, sum of 5 cycles each) (fold (ratio)); higher = stronger signal-on switching upon ATP binding; sequences stand for … in TCGTCGGCAGCGTCAGATGTGTATAAGAGACAGTTTTTTTTTTTTTTTTTTTTTTTTT…TC
Conditions: aptamer strand: ATP DNA aptamer (quencher-CACCTGGGGGAGTATTGCGGAGGAAGG + anchor), 100 nM annealed; ATP concentration: 500 uM
In short: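 The fluorescence ratio divides summed target-cycle Cy3 intensity by summed buffer-cycle Cy3 intensity for each cluster and is averaged per switch-domain sequence. Cy3-labelled switching-strand clusters on a modified Illumina MiSeq flow-cell were annealed to 100 nM quencher-labelled ATP aptamer, then imaged in selection buffer and again after 15 min with 500 uM ATP at 22 °C. Five such cycles were run, with NaOH stripping and re-annealing between them, and clusters outside 100-1000 RFU were excluded.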
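Note: ATP exposure 15 min at 22 °C before imaging.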

Row | Sequence | switch fluorescence ratio
1 | GACCGGGTTC | 1.02 ± 0.033
2 | GACCTATGGA | 0.997 ± 0.0037
3 | GACCTTAATT | 1.01 ± 0.025
4 | GACCTTGACG | 1.02 ± 0.022
5 | GACCTTGGTG | 1.03 ± 0.083
6 | GACCTTTCTG | 0.997 ± 0.025
7 | GACCTTTGAG | 1.017 ± 0.0045
8 | GACCTTTTT | 1.02 ± 0.042
9 | GACCTTTTTC | 1.03 ± 0.068
10 | GACGACGGGG | 1.05 ± 0.028
11 | GACGATGCCA | 1.16 ± 0.035
12 | GACGCAGGGT | 1.34 ± 0.25
13 | GACGCATATG | 2.03 ± 0.098
14 | GACGCCGGGT | 1.03 ± 0.02
15 | GACGCCGGTC | 1.25 ± 0.27
16 | GACGCGGAAC | 5.48 ± 0.37
17 | GACGGAACGG | 1.04 ± 0.022
18 | GACGGAAGCA | 1.38 ± 0.11
19 | GACGGCGTCG | 0.974 ± 0.011
20 | GACGGCTTGG | 1.02 ± 0.025
21 | GACGGGCGGC | 0.984 ± 0.02
22 | GACGGGCTGG | 0.989 ± 0.024
23 | GACGGGCTGT | 0.985 ± 0.029
24 | GACGGGGAAA | 1.01 ± 0.028
25 | GACGGGGCG | 0.97 ± 0.057

Row | Sequence | switch fluorescence ratio
26 | GACGGTTGTG | 1 ± 0.012
27 | GACGTAGGTC | 1 ± 0.029
28 | GACGTAGTTT | 1.014 ± 0.0021
29 | GACGTGACAA | 1.168 ± 0.0021
30 | GACGTGACGA | 1.15 ± 0.019
31 | GACGTGGTTT | 0.994 ± 0.046
32 | GACGTTCGGC | 0.991 ± 0.026
33 | GACTAAGTGT | 1 ± 0.022
34 | GACTACTGTA | 1.04 ± 0.051
35 | GACTAGACGG | 1.13 ± 0.041
36 | GACTAGGTTT | 1.04 ± 0.013
37 | GACTATCGGA | 1.03 ± 0.013
38 | GACTATGAGA | 0.9936 ± 0.0039
39 | GACTATGGTT | 0.986 ± 0.051
40 | GACTATGTTT | 1 ± 0.044
41 | GACTCAAGTT | 1.048 ± 0.0054
42 | GACTCAATGG | 1.14 ± 0.03
43 | GACTCAGTTG | 0.9947 ± 0.0084
44 | GACTCGAGGC | 1.05 ± 0.06
45 | GACTCGGTGC | 1.05 ± 0.019
46 | GACTCTGAGT | 1.01 ± 0.017
47 | GACTCTTGAA | 0.995 ± 0.071
48 | GACTGATCGT | 1.008 ± 0.0059
49 | GACTGATTGG | 1.02 ± 0.012
50 | GACTGGCTGG | 1 ± 0.03

Row | Sequence | switch fluorescence ratio
51 | GACTGGGGTA | 0.988 ± 0.011
52 | GACTGGGTG | 1.04 ± 0.014
53 | GACTGGGTTG | 0.9668 ± 0.0011
54 | GACTGTGATC | 1.037 ± 0.0042
55 | GACTGTTCGG | 0.985 ± 0.025
56 | GACTTAGAAT | 1 ± 0.0026
57 | GACTTATCTA | 1.016 ± 0.0073
58 | GACTTCGTGG | 1.01 ± 0.056
59 | GACTTGATTA | 0.9719 ± 0.0062
60 | GACTTGGGAT | 1.034 ± 0.0019
61 | GACTTGGGGC | 0.993 ± 0.037
62 | GACTTTACGG | 1.06 ± 0.048
63 | GACTTTGGAG | 1 ± 0.027
64 | GACTTTGGGA | 0.999 ± 0.023
65 | GACTTTGTGC | 0.9772 ± 0.0022
66 | GACTTTTCTT | 0.971 ± 0.033
67 | GACTTTTTGG | 0.998 ± 0.027
68 | GAGAAACCGG | 1.03 ± 0.019
69 | GAGAAATGTG | 1.03 ± 0.011
70 | GAGAAGAAGC | 1 ± 0.025
71 | GAGAAGGATT | 0.99 ± 0.046
72 | GAGAATCGGA | 0.965 ± 0.012
73 | GAGACATTGG | 1 ± 0.062
74 | GAGACCTATT | 0.993 ± 0.035
75 | GAGAGCTATC | 0.9848 ± 0.0024

Row | Sequence | switch fluorescence ratio
76 | GAGAGCTTGT | 0.956 ± 0.027
77 | GAGAGGAGGT | 1.022 ± 0.0029
78 | GAGAGGGAGG | 0.979 ± 0.015
79 | GAGAGGGATT | 1.03 ± 0.015
80 | GAGAGGGGAA | 1.01 ± 0.009
81 | GAGAGGGGAG | 0.983 ± 0.025
82 | GAGAGGGGGA | 0.97 ± 0.036
83 | GAGAGGGGGG | 1 ± 0.025
84 | GAGAGGGTTT | 1 ± 0.011
85 | GAGAGTAATT | 1.01 ± 0.051
86 | GAGAGTATTT | 0.995 ± 0.073
87 | GAGAGTGGGG | 0.985 ± 0.037
88 | GAGAGTTGGT | 1.007 ± 0.0073
89 | GAGAGTTTAA | 1.013 ± 0.0051
90 | GAGATAAAAG | 1.01 ± 0.03
91 | GAGATAGTGT | 0.991 ± 0.036
92 | GAGATAGTTT | 0.995 ± 0.042
93 | GAGATGAGGA | 0.97 ± 0.024
94 | GAGATGGGGT | 0.995 ± 0.016
95 | GAGATGTCTT | 0.9833 ± 0.0078
96 | GAGATTGGGA | 1.04 ± 0.045
97 | GAGATTTAGG | 0.969 ± 0.034
98 | GAGATTTATT | 0.985 ± 0.057
99 | GAGATTTCAT | 0.982 ± 0.036
100 | GAGATTTGGA | 1.03 ± 0.029

Row | Sequence | switch fluorescence ratio
101 | GAGCAAAAAG | 1.05 ± 0.042
102 | GAGCAACCTT | 1.45 ± 0.014
103 | GAGCAGAGGT | 0.984 ± 0.011
104 | GAGCAGGTTT | 1.6 ± 0.92
105 | GAGCCCAGGG | 1.96 ± 0.82
106 | GAGCCGCCAG | 1.03 ± 0.045
107 | GAGCCTCGGA | 1.29 ± 0.44
108 | GAGCGATGGT | 1.12 ± 0.021
109 | GAGCGCGATT | 1.03 ± 0.036
110 | GAGCGGTATC | 0.997 ± 0.043
111 | GAGCGTGTGA | 1.02 ± 0.019
112 | GAGCTAGGAA | 0.981 ± 0.058
113 | GAGCTAGGGA | 1.011 ± 0.0013
114 | GAGCTATGGG | 0.983 ± 0.043
115 | GAGCTATTCG | 1.01 ± 0.047
116 | GAGCTCGTGG | 1.03 ± 0.051
117 | GAGCTGACTT | 1.02 ± 0.016
118 | GAGCTGGGTG | 1.09 ± 0.043
119 | GAGCTGTATG | 1.03 ± 0.014
120 | GAGCTTCTCT | 1.0194 ± 9.9e-05
121 | GAGCTTTTGG | 1.03 ± 0.068
122 | GAGGAAATGG | 1.024 ± 0.0046
123 | GAGGAAATTG | 0.963 ± 0.054
124 | GAGGAAGTCT | 1.03 ± 0.026
125 | GAGGAATGGC | 0.9828 ± 0.0022

Row | Sequence | switch fluorescence ratio
126 | GAGGAGCTTG | 0.94 ± 0.096
127 | GAGGAGGGAG | 0.998 ± 0.014
128 | GAGGAGGTTG | 1.027 ± 0.003
129 | GAGGATGTTA | 1.03 ± 0.036
130 | GAGGCAGAAA | 1.09 ± 0.044
131 | GAGGCAGAAT | 1.03 ± 0.012
132 | GAGGCGTACG | 1.04 ± 0.021
133 | GAGGCGTGTG | 0.985 ± 0.029
134 | GAGGCTTGGG | 0.99 ± 0.011
135 | GAGGGAAACA | 1.01 ± 0.017
136 | GAGGGAAACT | 1.05 ± 0.11
137 | GAGGGAATCG | 0.9635 ± 0.001
138 | GAGGGAGAAA | 1.03 ± 0.038
139 | GAGGGAGATG | 1.03 ± 0.018
140 | GAGGGATATA | 0.996 ± 0.043
141 | GAGGGATGTA | 1.01 ± 0.022
142 | GAGGGATTGG | 1.05 ± 0.12
143 | GAGGGCACGA | 1.09 ± 0.086
144 | GAGGGCAGCA | 1.01 ± 0.048
145 | GAGGGCCTCA | 1 ± 0.033
146 | GAGGGCGGGA | 1.01 ± 0.047
147 | GAGGGCGTTT | 0.98 ± 0.027
148 | GAGGGCTTTT | 0.98 ± 0.017
149 | GAGGGGAAAA | 0.99 ± 0.04
150 | GAGGGGAGGG | 1.04 ± 0.065

Row | Sequence | switch fluorescence ratio
151 | GAGGGGATTT | 1.01 ± 0.013
152 | GAGGGGCCTG | 1.01 ± 0.083
153 | GAGGGGCGCC | 0.987 ± 0.016
154 | GAGGGGCGGT | 1.02 ± 0.026
155 | GAGGGGCGTG | 1 ± 0.022
156 | GAGGGGCTGG | 0.984 ± 0.046
157 | GAGGGGGACT | 1.13 ± 0.19
158 | GAGGGGGAGC | 1.03 ± 0.089
159 | GAGGGGGATG | 0.979 ± 0.026
160 | GAGGGGGGAT | 1.01 ± 0.033
161 | GAGGGGGGGA | 1 ± 0.044
162 | GAGGGGTGTC | 0.978 ± 0.03
163 | GAGGGGTTG | 0.988 ± 0.034
164 | GAGGGTATTA | 1.02 ± 0.019
165 | GAGGGTCGTG | 0.9629 ± 0.0013
166 | GAGGGTCTTT | 0.969 ± 0.025
167 | GAGGGTGCAT | 0.987 ± 0.043
168 | GAGGGTTCCG | 1.01 ± 0.026
169 | GAGGGTTGAA | 0.999 ± 0.033
170 | GAGGTAAGTG | 0.954 ± 0.024
171 | GAGGTACGTA | 1.01 ± 0.027
172 | GAGGTAGCTA | 1.03 ± 0.0051
173 | GAGGTAGGGA | 1.06 ± 0.13
174 | GAGGTAGTCT | 1.07 ± 0.14
175 | GAGGTCCACT | 1.01 ± 0.044

Row | Sequence | switch fluorescence ratio
176 | GAGGTCGGGC | 0.94 ± 0.039
177 | GAGGTCTGTG | 0.965 ± 0.018
178 | GAGGTGAAAT | 1.01 ± 0.027
179 | GAGGTGACTG | 1.01 ± 0.015
180 | GAGGTGAGTG | 0.9921 ± 0.0066
181 | GAGGTGATAG | 1.036 ± 0.0033
182 | GAGGTGTAGA | 1.05 ± 0.022
183 | GAGGTGTAGG | 1.01 ± 0.02
184 | GAGGTGTTCA | 1.01 ± 0.02
185 | GAGGTTCCCG | 0.984 ± 0.051
186 | GAGGTTCGGT | 1.019 ± 0.0037
187 | GAGGTTGGGG | 1.02 ± 0.059
188 | GAGGTTGTTT | 0.977 ± 0.02
189 | GAGGTTTAGA | 0.98753 ± 9.8e-05
190 | GAGGTTTGTA | 0.974 ± 0.013
191 | GAGTAAGACA | 0.99 ± 0.013
192 | GAGTAATGCG | 0.943 ± 0.066
193 | GAGTACCACT | 1.01 ± 0.078
194 | GAGTAGATGT | 0.983 ± 0.011
195 | GAGTAGGGTA | 1.01 ± 0.016
196 | GAGTATATGT | 0.9998 ± 0.0099
197 | GAGTATCTAG | 0.986 ± 0.038
198 | GAGTATGTGG | 0.9516 ± 0.0029
199 | GAGTCAATTT | 1.0118 ± 0.00063
200 | GAGTCACGTC | 0.9468 ± 0.0088
